Assay results reported in US20060057701A1 (RINAT NEUROSCIENCE, published 2006).
Blank lines part the entries; values can stand above or below the binder they belong to. Ends that are not written are not given here.

Tests used:
Aβ1-43 peptide = target: T1, Aβ1-43 peptide (human); experiment: SPR competition: soluble peptide against immobilized Aβ1-40, Fab at 50 nM
T1 construct: also called 1-43 (WT)
Protocol: (§1) To determine the epitope on Aβ polypeptide that is recognized by antibody 9TL, Surface Plasmon Resonance (SPR, Biacore 3000) binding analysis was used. Aβ₁₋₄₀ polypeptide coupled to biotin (Global Peptide Services, CO) was immobilized on a streptavidin-coated chip (SA chip). The binding of Aβ antibodies Fab fragments (at 50 nM) to the immobilized Aβ₁₋₄₀ in the absence or presence of different soluble fragments of the Aβ peptide (at 10 μM, from American Peptide Company Inc., CA). Amino acid sequences of Aβ₁₋₄₀, Aβ₁₋₄₂, and Aβ₁₋₄₃ are shown in below in Table 4. The Aβ peptides which displaced binding of antibody 9TL Fab fragment to Aβ₁₋₄₀ were Aβ₂₈₋₄₀, Aβ₁₋₄₀, Aβ₃₃₋₄₀, and Aβ₁₇₋₄₀, respectively (FIG. 2). Thus, antibody 9TL binds to a C-terminal peptide (33-40) of Aβ₁₋₄₀.

Aβ28-42 peptide = target: T2, Aβ28-42 peptide (human); experiment: as above
T2 peptide: KGAIIGLMVGGVVIA
Protocol: as §1

human C1q = target: T3, human C1q (human, UniProt P02745 23-245; P02746 28-253; P02747 29-245); experiment: SPR, C1q on CM5 chip, antibody flowed
T3 construct: also called hC1q; human complement
T3 sequence (P02745 23-245 limits assumed, chain 1 of 3): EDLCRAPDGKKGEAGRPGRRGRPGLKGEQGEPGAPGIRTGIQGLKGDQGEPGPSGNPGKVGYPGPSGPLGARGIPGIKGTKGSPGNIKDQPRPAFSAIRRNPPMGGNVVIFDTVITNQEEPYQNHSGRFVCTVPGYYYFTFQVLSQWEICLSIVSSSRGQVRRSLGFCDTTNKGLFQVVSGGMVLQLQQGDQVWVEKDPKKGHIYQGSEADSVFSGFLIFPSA
T3 sequence (P02746 28-253 limits assumed, chain 2 of 3): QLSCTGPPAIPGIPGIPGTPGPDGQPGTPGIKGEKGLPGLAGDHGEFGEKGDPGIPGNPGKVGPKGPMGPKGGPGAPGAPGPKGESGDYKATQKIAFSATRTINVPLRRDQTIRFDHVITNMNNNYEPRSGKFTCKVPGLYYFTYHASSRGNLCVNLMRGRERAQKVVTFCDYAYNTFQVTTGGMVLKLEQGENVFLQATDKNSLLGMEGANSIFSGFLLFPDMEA
T3 sequence (P02747 29-245 limits assumed, chain 3 of 3): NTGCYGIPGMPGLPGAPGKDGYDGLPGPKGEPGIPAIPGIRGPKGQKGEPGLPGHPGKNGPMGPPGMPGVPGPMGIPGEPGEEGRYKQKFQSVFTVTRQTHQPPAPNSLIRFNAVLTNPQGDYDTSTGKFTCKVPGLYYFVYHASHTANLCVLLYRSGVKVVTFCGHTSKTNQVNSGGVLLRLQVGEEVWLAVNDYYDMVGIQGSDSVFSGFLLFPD
Protocol: (§2) Binding affinity of the antibody Fc regions to Fcγ receptors or complement were measured using BIAcore as described above. Briefly, purified human or murine Fcγ receptors (from R&D Systems) and human C1q (from Quidel) were immobilized on BIAcore CM5 chip by amine chemistry. Serial dilutions of monoclonal antibodies (ranging from 2 nM to the maximum concentration as indicated in Tables 16 and 17) were injected. HBS-EP (0.01M HEPES, pH 7.4, 0.15 M NaCl, 3 mM EDTA, 0.005% Surfactant P20) as running and sample buffer. Binding data were analyzed using 1:1 langmuir interaction model for high affinity interactions, or steady state affinity model for low affinity interactions.

murine FcγRI = target: T4, murine FcγRI (murine, UniProt P26151 25-297, limits assumed); experiment: SPR, receptor on CM5 chip, antibody flowed
T4 construct: Bought; also called mFcγRI
T4 sequence (looked up): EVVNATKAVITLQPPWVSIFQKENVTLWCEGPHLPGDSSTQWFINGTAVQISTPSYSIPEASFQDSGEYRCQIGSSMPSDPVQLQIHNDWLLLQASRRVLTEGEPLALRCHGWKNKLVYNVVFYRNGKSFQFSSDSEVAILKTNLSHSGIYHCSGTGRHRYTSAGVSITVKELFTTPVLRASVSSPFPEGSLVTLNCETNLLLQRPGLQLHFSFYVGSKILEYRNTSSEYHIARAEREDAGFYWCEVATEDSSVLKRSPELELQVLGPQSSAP
Protocol: as §2

murine FcγRIIb = target: T5, murine FcγRIIb (murine, UniProt P08101 40-217, limits assumed); experiment: SPR, receptor on CM5 chip, antibody flowed
T5 construct: Bought; also called mFcγRIIb
T5 sequence (looked up): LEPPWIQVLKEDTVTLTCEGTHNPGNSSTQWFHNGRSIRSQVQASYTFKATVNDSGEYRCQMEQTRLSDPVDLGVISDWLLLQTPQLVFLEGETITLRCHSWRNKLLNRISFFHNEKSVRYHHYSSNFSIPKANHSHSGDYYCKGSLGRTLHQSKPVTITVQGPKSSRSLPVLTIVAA
Protocol: as §2

murine FcγRIII = target: T6, murine FcγRIII (murine, UniProt P08508 31-215, limits assumed); experiment: SPR, receptor on CM5 chip, antibody flowed
T6 construct: Bought; also called mFcγRIII
T6 sequence (looked up): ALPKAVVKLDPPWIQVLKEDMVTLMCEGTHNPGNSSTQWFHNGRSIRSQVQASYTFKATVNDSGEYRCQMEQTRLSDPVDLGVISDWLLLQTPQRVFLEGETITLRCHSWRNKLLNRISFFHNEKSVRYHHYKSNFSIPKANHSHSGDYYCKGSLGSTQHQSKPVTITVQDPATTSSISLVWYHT
Protocol: as §2

human FcγRI = target: T7, human FcγRI (human, UniProt P12314 16-288, limits assumed); experiment: SPR, receptor on CM5 chip, antibody flowed
T7 construct: Bought
T7 sequence (P12314 16-288 limits assumed): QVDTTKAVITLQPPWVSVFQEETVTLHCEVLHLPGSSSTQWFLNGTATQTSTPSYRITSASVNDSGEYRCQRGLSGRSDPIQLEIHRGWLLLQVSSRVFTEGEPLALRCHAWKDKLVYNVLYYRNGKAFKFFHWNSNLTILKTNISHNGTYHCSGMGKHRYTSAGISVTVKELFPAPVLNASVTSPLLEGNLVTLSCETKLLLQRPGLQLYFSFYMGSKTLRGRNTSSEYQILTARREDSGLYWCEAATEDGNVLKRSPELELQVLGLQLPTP
Protocol: as §2

human FcγRIIb/c = target: T8, human FcγRIIb/c (human, UniProt P31994 46-217, limits assumed); experiment: SPR, receptor on CM5 chip, antibody flowed
T8 construct: Bought
T8 sequence (looked up): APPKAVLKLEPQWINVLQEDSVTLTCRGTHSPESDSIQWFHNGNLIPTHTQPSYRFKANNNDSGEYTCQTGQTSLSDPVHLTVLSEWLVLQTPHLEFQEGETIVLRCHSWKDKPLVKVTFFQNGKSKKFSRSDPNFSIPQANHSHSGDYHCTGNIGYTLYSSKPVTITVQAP
Protocol: as §2

[1] = target: T9, biotinylated Aβ 20-34 peptide with C-terminal glycine (human, also: biotinylated, position not given here); experiment: ELISA: biotinylated peptide on streptavidin plate, goat anti-human kappa HRP, absorbance at 450 nm
T9 peptide: FAEDVGSNKGAIIGLG

[2] = target: T10, biotinylated Aβ 21-35 peptide with C-terminal glycine (human, also: biotinylated, position not given here); experiment: as above
T10 peptide: AEDVGSNKGAIIGLMG

[3] = target: T11, biotinylated Aβ 22-36 peptide with C-terminal glycine (human, also: biotinylated, position not given here); experiment: as above
T11 peptide: EDVGSNKGAIIGLMVG

[4] = target: T12, biotinylated Aβ 23-37 peptide with C-terminal glycine (human, also: biotinylated, position not given here); experiment: as above
T12 peptide: DVGSNKGAIIGLMVGG

[5] = target: T13, biotinylated Aβ 24-38 peptide with C-terminal glycine (human, also: biotinylated, position not given here); experiment: as above
T13 peptide: VGSNKGAIIGLMVGGG

[6] = target: T14, biotinylated Aβ 25-39 peptide with C-terminal glycine (human, also: biotinylated, position not given here); experiment: as above
T14 peptide: GSNKGAIIGLMVGGVG

T1 sequence (peptide, as listed by the source): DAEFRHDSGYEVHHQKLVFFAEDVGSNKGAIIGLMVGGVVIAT

binding result (Aβ1-43 peptide): no binding (tested: 10 µM peptide) | binding result (Aβ28-42 peptide): no binding (tested: 10 µM peptide)
B1: antibody 9TL Fab fragment (Fab, V domains shown)
VH: QVQLVQSGAEVKKPGASVKVSCKASGYYTEAYYIHWVRQAPGQGLEWMGRIDPATGNTKYAPRLQDRVTMTRDTSTSTVYMELSSLRSEDTAVYYCASLYSLPVYWGQGTTVTVSS
VL: DVVMTQSPLSLPVTLGQPASISCKSSQSLLYSDAKTYLNWFQQRPGQSPRRLIYQISRLDPGVPDRFSGSGSGTDFTLKISRVEAEDVGVYYCLQGTHYPVLFGQGTRLEIKR
notes: Fab expressed in E. coli

binding result (human C1q): no binding (tested: 30,000 nM) | binding result (murine FcγRI): no binding (tested: 30,000 nM) | binding result (murine FcγRIIb): no binding (tested: 30,000 nM) | binding result (murine FcγRIII): no binding (tested: 30,000 nM) | binding result (human FcγRI): no binding (tested: 30 µM) | Kd (human FcγRIIb/c): 61 µM
B2: antibody 9TL (antibody, human IgG2, kappa)
heavy: QVQLVQSGAEVKKPGASVKVSCKASGYYTEAYYIHWVRQAPGQGLEWMGRIDPATGNTKYAPRLQDRVTMTRDTSTSTVYMELSSLRSEDTAVYYCASLYSLPVYWGQGTTVTVSSASTKGPSVFPLAPCSRSTSESTAALGCLVKDYFPEPVTVSWNSGALTSGVHTFPAVLQSSGLYSLSSVVTVPSSNFGTQTYTCNVDHKPSNTKVDKTVERKCCVECPPCPAPPVAGPSVFLFPPKPKDTLMISRTPEVTCVVVDVSHEDPEVQFNWYVDGVEVHNAKTKPREEQFNSTFRVVSVLTVVHQDWLNGKEYKCKVSNKGLPSSIEKTISKTKGQPREPQVYTLPPSREEMTKNQVSLTCLVKGFYPSDIAVEWESNGQPENNYKTTPPMLDSDGSFFLYSKLTVDKSRWQQGNVFSCSVMHEALHNHYTQKSLSLSPGK
light: DVVMTQSPLSLPVTLGQPASISCKSSQSLLYSDAKTYLNWFQQRPGQSPRRLIYQISRLDPGVPDRFSGSGSGTDFTLKISRVEAEDVGVYYCLQGTHYPVLFGQGTRLEIKRTVAAPSVFIFPPSDEQLKSGTASVVCLLNNFYPREAKVQWKVDNALQSGNSQESVTEQDSKDSTYSLSSTLTLSKADYEKHKVYACEVTHQGLSSPVTKSFNRGEC
notes: Full antibody; human IgG2a constant region with A330P331 to S330S331, human kappa; transient expression in HEK 293 cells; also called 9TL mAb; 9TL(hIgG2Δa); copies: 2 + 2

absorbance at 450 nm [1]: > 3 | absorbance at 450 nm [2]: > 3 | absorbance at 450 nm [3]: > 3 | absorbance at 450 nm [4]: 2.3 | absorbance at 450 nm [5]: 2.1 | absorbance at 450 nm [6]: 1.5
B3: antibody 6G (antibody, human IgG2, kappa, V domains shown)
VH: QVQLVQSGAEVKKPGASVKVSCKASGYTFTTYAIHWVRQAPGQGLEWMGFTSPYSGVSNYNQKFKGRVTMTRDTSTSTVYMELSSLRSEDTAVYYCARFDNYDRGYVRDYWGQGTLVTVSS
VL: DIVMTQSPDSLAVSLGERATINCRASESVDNDRISFLNWYQQKPGQPPKLLIYAATKQGTGVPDRFSGSGSGTDFTLTISSLQAEDVAVYYCQQSKEFPWSFGGGTKVEIKR
notes: Full antibody with modified human IgG2a (A330P331 to S330S331) and human kappa
